B3: Cdc37 (human, full length), bacterially expressed (natural protein, UniProt Q16543 1-378, looked up)
chain: MVDYSVWDHIEVSDDEDETHPNIDTASLFRWRHQARVERMEQFQKEKEELDRGCRECKRKVAECQRKLKELEVAEGGKAELERLQAEAQQLRKEERSWEQKLEEMRKKEKSMPWNVDTLSKDGFSKSMVNTKPEKTEEDSEEVREQKHKTFVEKYEKQIKHFGMLRRWDDSQKYLSDNVHLVCEETANYLVIWCIDLEVEEKCALMEQVAHQTIVMQFILELAKSLKVDPRACFRQFFTKIKTADRQYMEGFNDELEAFKERVRGRAKLRIEKAMKEYEEEERKKRLGPGGLDPVEVYESLPEELQKCFDVKDVQMLQDAISKMDPTDAKYHMQRCIDSGLWVPNSKASEAKEGEEAGPGDPLLEAVPKTGDEKDVSV

Where two headings read alike, the source gives them in different places.

For assay [1], the target named is Cdc37 (human, full length), bacterially expressed (human) (UniProt Q16543). The experiment in a line: ITC. Background: Isothermal titration calorimetry measures the heat released or taken up as one component is titrated into another.
For assay [2], the target named is T1, Cak1p (Saccharomyces cerevisiae, UniProt P43568).
T1 sequence (P43568 1-368): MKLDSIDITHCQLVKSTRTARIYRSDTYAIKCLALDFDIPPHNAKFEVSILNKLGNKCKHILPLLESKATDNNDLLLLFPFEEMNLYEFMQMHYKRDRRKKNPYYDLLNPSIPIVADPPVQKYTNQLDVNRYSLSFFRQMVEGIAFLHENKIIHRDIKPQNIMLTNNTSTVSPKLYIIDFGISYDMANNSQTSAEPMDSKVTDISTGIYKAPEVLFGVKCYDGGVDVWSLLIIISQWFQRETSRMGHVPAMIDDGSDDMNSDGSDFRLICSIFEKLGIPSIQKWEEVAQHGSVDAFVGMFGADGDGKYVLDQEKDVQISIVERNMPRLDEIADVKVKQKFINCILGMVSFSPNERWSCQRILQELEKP
The experiment in a line: isothermal titration calorimetry. Format: binding.

For assay [3], the target named is B3. The experiment in a line: SEC. Background: Size exclusion chromatography separates by hydrodynamic size, large species first.
In assay [4] the target is T2, Hsp90β, bacterially expressed (human, UniProt P08238 1-724). The experiment in a line: SEC.
In assay [5] the target is T2, Hsp90β, bacterially expressed. In words: SEC. The source holds these as a separate data set.
Assay [6] has as its target T3, budding yeast Cdc37p (budding yeast, UniProt P06101 1-506).
T3 sequence (looked up): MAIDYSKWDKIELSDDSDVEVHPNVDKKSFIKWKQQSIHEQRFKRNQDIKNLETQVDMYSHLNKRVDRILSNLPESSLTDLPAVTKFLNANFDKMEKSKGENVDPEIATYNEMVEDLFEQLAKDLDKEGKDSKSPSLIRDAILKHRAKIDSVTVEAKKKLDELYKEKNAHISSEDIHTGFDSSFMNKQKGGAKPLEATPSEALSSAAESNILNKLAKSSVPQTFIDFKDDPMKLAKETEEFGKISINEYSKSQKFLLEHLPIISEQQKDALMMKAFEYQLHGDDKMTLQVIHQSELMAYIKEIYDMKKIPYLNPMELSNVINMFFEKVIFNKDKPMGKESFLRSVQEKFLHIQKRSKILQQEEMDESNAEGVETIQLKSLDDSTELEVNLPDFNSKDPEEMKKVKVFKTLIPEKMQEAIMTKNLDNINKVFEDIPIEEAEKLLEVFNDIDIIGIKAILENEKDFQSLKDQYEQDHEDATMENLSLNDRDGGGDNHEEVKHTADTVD
The experiment in a line: SEC.

This note sets out measurements from publication PMC5695660 (Nature chemical biology, 2013).

T2 sequence (P08238 whole entry): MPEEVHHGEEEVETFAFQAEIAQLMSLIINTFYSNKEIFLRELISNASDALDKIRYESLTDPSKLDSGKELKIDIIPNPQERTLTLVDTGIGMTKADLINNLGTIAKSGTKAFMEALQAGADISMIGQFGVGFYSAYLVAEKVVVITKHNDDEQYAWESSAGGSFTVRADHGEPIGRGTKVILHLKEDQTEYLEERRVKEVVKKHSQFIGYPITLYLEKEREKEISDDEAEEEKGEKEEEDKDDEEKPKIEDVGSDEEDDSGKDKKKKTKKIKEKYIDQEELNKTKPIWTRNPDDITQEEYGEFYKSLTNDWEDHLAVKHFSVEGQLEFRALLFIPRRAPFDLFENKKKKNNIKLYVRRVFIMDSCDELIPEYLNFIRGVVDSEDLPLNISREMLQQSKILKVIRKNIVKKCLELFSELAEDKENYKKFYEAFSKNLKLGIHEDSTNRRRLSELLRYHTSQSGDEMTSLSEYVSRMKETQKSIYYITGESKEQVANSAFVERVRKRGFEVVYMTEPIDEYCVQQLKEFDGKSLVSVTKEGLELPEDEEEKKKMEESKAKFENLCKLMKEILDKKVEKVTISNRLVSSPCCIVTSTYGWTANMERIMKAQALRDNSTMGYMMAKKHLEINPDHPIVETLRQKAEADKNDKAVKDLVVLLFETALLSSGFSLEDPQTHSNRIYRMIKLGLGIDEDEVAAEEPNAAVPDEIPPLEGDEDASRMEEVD

With “solubilised BRaf V600E kinase domain (sBRafV600E), bacterially expressed (from UniProt P15056 457-717) (domain or fragment)”, the dissociation constant Kd in assay [1] stood at 0.2 µM. In assay [2], `NC1=N/C(=C2/CCNC(=O)c3[nH]ccc32)C(=O)N1` [debromohymenialdisine] yielded an equilibrium dissociation constant (Kd) of about 1.7 µM.

B1: BRaf kinase domain (wild-type, native; amino acids 433-726), Sf9 (domain or fragment, human, UniProt P15056 433-726, looked up)
chain: EDRNRMKTLGRRDSSDDWEIPDGQITVGQRIGSGSFGTVYKGKWHGDVAVKMLNVTAPTPQQLQAFKNEVGVLRKTRHVNILLFMGYSTKPQLAIVTQWCEGSSLYHHLHIIETKFEMIKLIDIARQTAQGMDYLHAKSIIHRDLKSNNIFLHEDLTVKIGDFGLATVKSRWSGSHQFEQLSGSILWMAPEVIRMQDKNPYSFQSDVYAFGIVLYELMTGQLPYSNINNRDQIIFMVGRGYLSPDLSKVRSNCPKAMKRLMAECLKKKRDERPLFPQILASIELLARSLPKIHR
With B1, in assay [3], the binding result is listed as “binds”.

B2: Cdc37 phosphorylated on Ser13 (natural protein, human, UniProt Q16543 1-378, looked up)
chain: MVDYSVWDHIEVSDDEDETHPNIDTASLFRWRHQARVERMEQFQKEKEELDRGCRECKRKVAECQRKLKELEVAEGGKAELERLQAEAQQLRKEERSWEQKLEEMRKKEKSMPWNVDTLSKDGFSKSMVNTKPEKTEEDSEEVREQKHKTFVEKYEKQIKHFGMLRRWDDSQKYLSDNVHLVCEETANYLVIWCIDLEVEEKCALMEQVAHQTIVMQFILELAKSLKVDPRACFRQFFTKIKTADRQYMEGFNDELEAFKERVRGRAKLRIEKAMKEYEEEERKKRLGPGGLDPVEVYESLPEELQKCFDVKDVQMLQDAISKMDPTDAKYHMQRCIDSGLWVPNSKASEAKEGEEAGPGDPLLEAVPKTGDEKDVSV
modifications: phosphoserine at 13
For B2, the binding result in assay [4] is listed as “binds”. For B3, the binding result in assay [5] is reported as “binds”.

B4: Cak1p, cyclin-dependent kinase activating kinase from budding yeast (enzyme, UniProt P43568 1-368, looked up)
chain: MKLDSIDITHCQLVKSTRTARIYRSDTYAIKCLALDFDIPPHNAKFEVSILNKLGNKCKHILPLLESKATDNNDLLLLFPFEEMNLYEFMQMHYKRDRRKKNPYYDLLNPSIPIVADPPVQKYTNQLDVNRYSLSFFRQMVEGIAFLHENKIIHRDIKPQNIMLTNNTSTVSPKLYIIDFGISYDMANNSQTSAEPMDSKVTDISTGIYKAPEVLFGVKCYDGGVDVWSLLIIISQWFQRETSRMGHVPAMIDDGSDDMNSDGSDFRLICSIFEKLGIPSIQKWEEVAQHGSVDAFVGMFGADGDGKYVLDQEKDVQISIVERNMPRLDEIADVKVKQKFINCILGMVSFSPNERWSCQRILQELEKP
As to B4, the binding result in assay [6] was “binds”.

As a reminder, the Kd is the constant that tells how readily two partners part at equilibrium. Low readings indicate higher affinity, high ones lower affinity.
